Results published in paper PMC6355983, “Structure of the Large Extracellular Loop of FtsX and Its Interaction with the Essential Peptidoglycan Hydrolase PcsB in Streptococcus pneumoniae” (mBio, 2019).

T1: PcsB coiled-coil domain, PscBCC(47–267) (Streptococcus pneumoniae, UniProt A0A0H2US70 47-267)
T1 construct: PcsB peptidoglycan hydrolase, Streptococcus pneumoniae, coiled-coil domain, residues 47 to 267; also called PcsB-CC(47–267); His-PscBCC(47–267); source: E. coli strain derived from BL21(DE3)
T1 sequence (looked up): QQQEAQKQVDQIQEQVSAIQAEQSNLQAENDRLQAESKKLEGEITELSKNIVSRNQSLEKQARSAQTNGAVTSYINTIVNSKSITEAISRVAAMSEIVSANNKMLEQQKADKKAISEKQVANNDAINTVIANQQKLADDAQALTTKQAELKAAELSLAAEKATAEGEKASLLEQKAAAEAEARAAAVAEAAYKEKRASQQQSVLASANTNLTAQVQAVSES

T2: PcsB CC (Streptococcus pneumoniae, UniProt A0A0H2ZQ76)
T2 chain: T1 sequence (looked up)

B1: FtsX large extracellular loop 1 (FtsX_(ECL1)), residues 46 to 168 (domain or fragment, Streptococcus pneumoniae, UniProt Q04LE4 46-168, looked up)
chain: NTAKLATDIENNVRVVVYIRKDVEDNSQTIEKEGQTVTNNDYHKVYDSLKNMSTVKSVTFSSKEEQYEKLTEIMGDNWKIFEGDANPLYDAYIVEANAPNDVKTIAEDAKKIEGVSEVQDGGA
notes: FtsX, Streptococcus pneumoniae, large extracellular loop (ECL1), residues 46 to 168; Uniformly 15N-labelled when observed by NMR, unlabelled when added to 15N PcsBCC(47-254) and in ITC; also called wild-type (WT) FtsX_(ECL1); Spn ECL1; source: E. coli strain derived from BL21(DE3); LB or M9 minimal medium with 15NH4Cl
B2: FtsX ECL1 (protein)
chain: TAKLATDIENNVRVVVYIRKDVEDNSQTIEKEGQTVTNNDYHKVYDSLKNMSTVKSVTFSSKEEQYEKLTEIMGDNWKIFEGDANPLYDAYIVEANAPNDVKTIAEDAKKIEGVSEVQDGGA

Experiments:
[1] = target: T1, PcsB coiled-coil domain, PscBCC(47–267); test: ITC; titration of PscBCC with FtsX_(ECL1) (wild type or L115A M119A); 50 mM potassium phosphate, 50 mM NaCl, 0.5 mM EDTA, pH 7.0, 25.0°C; one-site binding model; conditions: both partners purified
PcsB CC = target: T2, PcsB CC; test: ITC; given as Ka

Binder	Ka [1] [M⁻¹]	Kd [1] [µM]	dH [1] [kcal/mol]	Kd (PcsB CC) [µM]
B1	30000	34 ± 6	-2.1 ± 0.2	–
B2	–	–	–	33.3
